Values belong to the substance of their own block, whether it stands above or below them.
How the values were obtained:
[1] = target: CRL4^DCAF1 (FL) (CUL4A-RBX1-DDB1-DCAF1), unneddylated (human) (UniProt Q13619); assay: cryo-EM structure
[2] = target: CRL4^DCAF1 (FL) (CUL4A-RBX1-DDB1-DCAF1), unneddylated (human) (UniProt Q13619); assay: SEC-MALS
[3] = target: CRL4^DCAF1 (FL) (R1247A) mutant (human) (UniProt Q13619); assay: SEC-MALS
[4] = target: CRL4^DCAF1 (FL)-VPR complex (human | HIV-1) (UniProt Q13619); assay: SEC-MALS
[5] = target: CRL4^DCAF1 (FL)-VPR-UNG2 complex (human | HIV-1 | not stated) (UniProt Q13619); assay: SEC-MALS
[6] = target: CRL4^DCAF1(FL)-MERLIN complex (UniProt Q13619); assay: SEC-MALS
[7] = target: DDB1-DCAF1 (FL) sub-complex (human) (UniProt Q16531); assay: SEC-MALS

Chain of CRL4^DCAF1 (FL) (CUL4A-RBX1-DDB1-DCAF1), unneddylated (Q13619 whole entry): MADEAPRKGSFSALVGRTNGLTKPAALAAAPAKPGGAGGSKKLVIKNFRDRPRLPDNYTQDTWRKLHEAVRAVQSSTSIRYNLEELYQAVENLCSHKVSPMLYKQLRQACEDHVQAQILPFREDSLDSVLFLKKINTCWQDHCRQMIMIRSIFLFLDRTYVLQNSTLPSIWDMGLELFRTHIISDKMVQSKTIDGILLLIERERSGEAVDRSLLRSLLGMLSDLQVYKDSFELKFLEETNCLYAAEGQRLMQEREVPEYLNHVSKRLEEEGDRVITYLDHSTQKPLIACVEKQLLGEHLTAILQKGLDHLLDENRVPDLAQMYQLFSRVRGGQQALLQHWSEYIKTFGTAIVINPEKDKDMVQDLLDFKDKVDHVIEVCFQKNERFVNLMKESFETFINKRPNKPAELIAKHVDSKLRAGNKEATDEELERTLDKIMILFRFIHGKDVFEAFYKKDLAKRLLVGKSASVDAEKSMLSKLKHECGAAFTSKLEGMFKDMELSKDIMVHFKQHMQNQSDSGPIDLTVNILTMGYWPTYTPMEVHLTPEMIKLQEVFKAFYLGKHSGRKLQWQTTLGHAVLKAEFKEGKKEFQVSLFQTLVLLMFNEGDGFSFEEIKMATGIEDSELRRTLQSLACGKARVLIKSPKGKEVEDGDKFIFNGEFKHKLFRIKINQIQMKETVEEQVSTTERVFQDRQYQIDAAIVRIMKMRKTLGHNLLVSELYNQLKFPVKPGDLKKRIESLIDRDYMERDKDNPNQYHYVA
Chain of CRL4^DCAF1 (FL) (CUL4A-RBX1-DDB1-DCAF1), unneddylated (P62877 whole entry): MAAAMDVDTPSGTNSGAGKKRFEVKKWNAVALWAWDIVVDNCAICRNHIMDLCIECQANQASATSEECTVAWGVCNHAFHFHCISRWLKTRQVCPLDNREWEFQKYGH
Chain of CRL4^DCAF1 (FL) (CUL4A-RBX1-DDB1-DCAF1), unneddylated (Q16531 whole entry): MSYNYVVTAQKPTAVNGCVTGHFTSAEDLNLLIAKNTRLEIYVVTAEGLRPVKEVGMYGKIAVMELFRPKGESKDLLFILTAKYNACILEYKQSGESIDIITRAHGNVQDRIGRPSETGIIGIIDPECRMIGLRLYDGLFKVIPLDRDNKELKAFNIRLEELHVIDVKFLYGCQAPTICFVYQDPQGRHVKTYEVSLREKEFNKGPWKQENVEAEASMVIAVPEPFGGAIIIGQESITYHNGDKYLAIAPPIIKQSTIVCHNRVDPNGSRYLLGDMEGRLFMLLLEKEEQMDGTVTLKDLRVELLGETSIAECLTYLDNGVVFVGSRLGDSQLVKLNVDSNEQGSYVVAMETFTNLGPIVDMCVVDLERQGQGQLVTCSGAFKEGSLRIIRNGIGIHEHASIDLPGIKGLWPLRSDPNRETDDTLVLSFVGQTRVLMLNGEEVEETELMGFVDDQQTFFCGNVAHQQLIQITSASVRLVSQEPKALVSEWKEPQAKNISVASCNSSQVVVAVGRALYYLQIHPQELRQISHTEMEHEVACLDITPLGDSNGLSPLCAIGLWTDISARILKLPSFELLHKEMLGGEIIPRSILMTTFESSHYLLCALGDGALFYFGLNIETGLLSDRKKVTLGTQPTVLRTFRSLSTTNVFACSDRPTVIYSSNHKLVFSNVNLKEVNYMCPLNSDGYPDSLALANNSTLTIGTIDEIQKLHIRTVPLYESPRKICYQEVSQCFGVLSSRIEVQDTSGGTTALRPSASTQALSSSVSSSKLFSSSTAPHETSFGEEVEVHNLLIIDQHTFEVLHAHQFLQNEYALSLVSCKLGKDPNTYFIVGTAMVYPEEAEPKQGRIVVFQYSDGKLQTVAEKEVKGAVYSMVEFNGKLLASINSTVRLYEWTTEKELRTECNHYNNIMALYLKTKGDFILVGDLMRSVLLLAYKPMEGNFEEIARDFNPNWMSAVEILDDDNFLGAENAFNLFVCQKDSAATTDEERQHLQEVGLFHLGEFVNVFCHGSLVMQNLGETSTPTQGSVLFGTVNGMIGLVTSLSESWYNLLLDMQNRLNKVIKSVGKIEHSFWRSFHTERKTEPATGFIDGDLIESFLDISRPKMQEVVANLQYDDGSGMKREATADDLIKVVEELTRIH
Chain of CRL4^DCAF1 (FL) (CUL4A-RBX1-DDB1-DCAF1), unneddylated (Q9Y4B6 whole entry): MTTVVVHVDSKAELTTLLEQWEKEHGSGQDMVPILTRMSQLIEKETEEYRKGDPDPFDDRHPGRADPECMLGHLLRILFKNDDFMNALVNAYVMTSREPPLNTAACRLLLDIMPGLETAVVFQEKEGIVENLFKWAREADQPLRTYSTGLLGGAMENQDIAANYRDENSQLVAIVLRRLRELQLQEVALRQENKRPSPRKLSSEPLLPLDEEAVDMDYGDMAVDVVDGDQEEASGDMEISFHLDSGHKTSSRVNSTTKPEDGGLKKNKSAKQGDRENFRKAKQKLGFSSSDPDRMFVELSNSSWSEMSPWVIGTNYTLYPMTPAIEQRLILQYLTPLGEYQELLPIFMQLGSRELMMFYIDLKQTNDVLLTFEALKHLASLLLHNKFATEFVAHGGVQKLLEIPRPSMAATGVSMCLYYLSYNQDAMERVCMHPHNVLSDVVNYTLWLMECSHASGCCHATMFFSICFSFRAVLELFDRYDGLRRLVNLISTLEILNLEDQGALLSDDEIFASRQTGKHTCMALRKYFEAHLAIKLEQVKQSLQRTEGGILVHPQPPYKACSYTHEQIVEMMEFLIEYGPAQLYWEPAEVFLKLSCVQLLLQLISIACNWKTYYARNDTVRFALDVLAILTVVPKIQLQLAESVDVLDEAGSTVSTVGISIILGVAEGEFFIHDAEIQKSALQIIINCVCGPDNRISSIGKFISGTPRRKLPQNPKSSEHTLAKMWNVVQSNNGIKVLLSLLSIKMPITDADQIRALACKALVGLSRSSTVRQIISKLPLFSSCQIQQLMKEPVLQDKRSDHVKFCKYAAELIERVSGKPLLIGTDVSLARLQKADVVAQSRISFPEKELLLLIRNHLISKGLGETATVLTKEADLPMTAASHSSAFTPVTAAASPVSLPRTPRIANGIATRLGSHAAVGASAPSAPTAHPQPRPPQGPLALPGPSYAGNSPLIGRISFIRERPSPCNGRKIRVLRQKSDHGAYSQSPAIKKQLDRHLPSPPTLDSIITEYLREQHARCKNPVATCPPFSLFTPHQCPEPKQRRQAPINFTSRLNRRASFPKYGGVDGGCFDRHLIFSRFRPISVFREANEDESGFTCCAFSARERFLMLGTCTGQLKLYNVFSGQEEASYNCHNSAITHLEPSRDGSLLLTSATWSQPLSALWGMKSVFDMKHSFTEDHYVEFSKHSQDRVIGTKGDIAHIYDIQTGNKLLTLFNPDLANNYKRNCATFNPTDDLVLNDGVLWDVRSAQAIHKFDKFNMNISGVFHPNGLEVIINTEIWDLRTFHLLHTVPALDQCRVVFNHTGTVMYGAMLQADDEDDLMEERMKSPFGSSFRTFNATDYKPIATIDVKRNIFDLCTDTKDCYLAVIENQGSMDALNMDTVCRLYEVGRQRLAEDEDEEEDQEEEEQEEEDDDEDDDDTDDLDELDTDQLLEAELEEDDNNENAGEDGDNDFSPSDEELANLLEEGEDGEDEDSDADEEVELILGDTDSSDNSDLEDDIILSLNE

Substance: CRL4^DCAF1 (FL) (CUL4A-RBX1-DDB1-DCAF1), unneddylated (from UniProt Q13619;P62877;Q16531;Q9Y4B6) (complex)
stoichiometry N [1]: 4
stoichiometry N [2]: 4

Substance: CRL4^DCAF1 (FL)-VPR complex (from UniProt Q13619;P62877;Q16531;Q9Y4B6;P12520)
stoichiometry N [4]: 4

Substance: CRL4^DCAF1 (FL)-VPR-UNG2 complex (from UniProt Q13619;P62877;Q16531;Q9Y4B6;P12520;P13051-1)
stoichiometry N [5]: 2

Other lines, results leading:

stoichiometry N [3]: 2
Substance: CRL4^DCAF1 (FL) (R1247A) mutant (from UniProt Q13619;P62877;Q16531;Q9Y4B6) (complex)

stoichiometry N [6]: 4
Substance: CRL4^DCAF1(FL)-MERLIN complex (from UniProt Q13619;P62877;Q16531;Q9Y4B6;P35240)

stoichiometry N [7]: 2
Substance: DDB1-DCAF1 (FL) sub-complex (from UniProt Q16531;Q9Y4B6)

Source: publication PMC8591539
